Test [1] deals with T1, KaiC (Synechococcus elongatus, UniProt Q79PF4 1-519).
T1 sequence: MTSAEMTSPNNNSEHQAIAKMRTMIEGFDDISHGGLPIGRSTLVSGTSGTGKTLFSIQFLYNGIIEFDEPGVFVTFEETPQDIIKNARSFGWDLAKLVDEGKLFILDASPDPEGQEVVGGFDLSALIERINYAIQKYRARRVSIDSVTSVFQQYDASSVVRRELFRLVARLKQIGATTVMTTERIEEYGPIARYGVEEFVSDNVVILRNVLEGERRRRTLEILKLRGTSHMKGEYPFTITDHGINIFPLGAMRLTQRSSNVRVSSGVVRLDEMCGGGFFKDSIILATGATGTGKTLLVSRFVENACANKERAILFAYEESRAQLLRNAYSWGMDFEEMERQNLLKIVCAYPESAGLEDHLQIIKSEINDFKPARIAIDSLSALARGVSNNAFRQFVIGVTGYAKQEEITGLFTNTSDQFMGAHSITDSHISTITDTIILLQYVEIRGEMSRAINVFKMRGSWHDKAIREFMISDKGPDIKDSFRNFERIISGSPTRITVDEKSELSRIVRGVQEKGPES
Nature of the test: fluorescence polarisation. Background: Fluorescence polarisation rises when a labelled molecule tumbles more slowly, as on binding a larger partner.

The target of test [2] is T2, SasA (unlabeled) (Synechococcus elongatus, UniProt Q06904 1-387).
T2 sequence: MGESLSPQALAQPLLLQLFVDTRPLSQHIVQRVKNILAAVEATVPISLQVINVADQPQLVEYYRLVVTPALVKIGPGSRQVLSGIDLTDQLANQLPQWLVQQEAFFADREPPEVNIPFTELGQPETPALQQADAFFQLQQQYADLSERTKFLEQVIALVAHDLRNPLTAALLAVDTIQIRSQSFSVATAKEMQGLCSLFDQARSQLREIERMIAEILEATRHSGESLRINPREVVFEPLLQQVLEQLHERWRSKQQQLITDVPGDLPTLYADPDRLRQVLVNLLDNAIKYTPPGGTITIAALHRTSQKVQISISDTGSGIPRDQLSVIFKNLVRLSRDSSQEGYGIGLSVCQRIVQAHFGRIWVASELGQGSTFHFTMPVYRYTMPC
The experiment in a line: fluorescence polarisation.

Numbering of substitutions follows the chain as printed. Numbers in names are those of the source.

The record followed here is doi:10.1101/2020.06.18.158576 (bioRxiv, 2020).

B1: SasA, fluorescently labeled probe (enzyme)
chain: T2 sequence
modifications: fluorescently labeled using sortase-mediated ligation
In the case of B1, in test [1], the binding result was “binds”.

B2: KaiA, fluorescently labeled probe (natural protein)
chain: MLSQIAICIWVESTAILQDCQRALSADRYQLQVCESGEMLLEYAQTHRDQIDCLILVAANPSFRAVVQQLCFEGVVVPAIVVGDRDSEDPDEPAKEQLYHSAELHLGIHQLEQLPYQVDAALAEFLRLAPVETMADHIMLMGANHDPELSSQQRDLAQRLQERLGYLGVYYKRDPDRFLRNLPAYESQKLHQAMQTSYREIVLSYFSPNSNLNQSIDNFVNMAFFADVPVTKVVEIHMELMDEFAKKLRVEGRSEDILLDYRLTLIDVIAHLCEMYRRSIPRET
modifications: fluorescently labeled using sortase-mediated ligation
Take B2: the binding result in test [1] is “binds”.

B3: RpaA R121Q mutant (natural protein)
chain: MKPRILVIDDDSAILELVAVNLEMSGYDVRKAEDGIKGQALAVQLVPDLIMLDLMLPRVDGFTVCQRLRRDERTAEIPVLMLTALGQTQDKVEGFNAGADDYLTKPFEVEEMLARVRALLQRTDRIPHAARHSEILSYGPLTLIPERFEAIWFNRTVKLTHLEFELLHCLLQRHGQTVAPSEILKEVWGYDPDDDIETIRVHIRHLRTKLEPDPRHPRYIKTVYGAGYCLELPAETELHQHADQFPSAS
For B3, the binding result in test [2] is given as “binds”.

B4: RpaA, fluorescently labeled probe (natural protein)
chain: B3 chain with Q121R
modifications: fluorescently labeled using sortase-mediated ligation
On to B4, for which the binding result in test [2] is “binds”.
